This note sets out measurements from publication PMC5414417.

The target in assay [1] is 3xFLAG-TMEM24(76-260) (human) (UniProt O14523). Description: native MS.
Assay [2] addresses TMEM24 SMP domain (residues 76 to 260) (human) (UniProt O14523). Description: SEC. A general note: SEC sorts molecules by how far they enter the pores of the column.

“3xFLAG-TMEM24(76-260) (from UniProt O14523 76-260) (domain or fragment)”: in assay [1], the stoichiometry N was determined as 2.

The substance “TMEM24 SMP domain (residues 76 to 260) (from UniProt O14523 76-260) (domain or fragment)” showed a stoichiometry N in assay [2] of 2.

For orientation: stoichiometry N means the number of molecules, sites or subunits per partner or assembly.
